Earlier results on 2 substances are cited in paper PMC3903589.

Data set [1] addresses CEACAM1 (UniProt P13688). As to the kind of experiment: SPR.
In data set [2] the target is NCAM (UniProt P13591). Kind of data set: SPR.

For the substance CEACAM1 (from UniProt P13688), in data set [1], the dissociation constant Kd is 7.65 µM. For NCAM (from UniProt P13591), the Kd in data set [2] was 0.025 µM.
